For one substance, cleavage of intracellular SNAP 25 (none detectable results are on record in patent US20110206616A1.

The target in this experiment is SNAP 25 (endogenous, rat neuronal cells) (rat) (UniProt P60881). Nature of the experiment: cell-based or functional assay.
Sequence of UniProt P60881 (P60881 whole entry): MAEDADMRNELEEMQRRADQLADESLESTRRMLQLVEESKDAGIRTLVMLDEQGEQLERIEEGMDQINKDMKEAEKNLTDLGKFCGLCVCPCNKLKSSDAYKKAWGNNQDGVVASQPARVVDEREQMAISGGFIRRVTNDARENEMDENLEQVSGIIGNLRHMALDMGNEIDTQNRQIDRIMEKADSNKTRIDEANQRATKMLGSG

“BoNT/Aad^ek, AcTEV- and enterokinase-processed disulfide-bonded LC-HC heterodimer (from UniProt P0DPI1 2-449; P0DPI0 449-1296)” gave a cleavage of intracellular SNAP 25 (none detectable at the concentration tested) of 500 nM.
